# Assay results as given in publication PMC2884070 (Journal of hepatology, 2010).
# B1: full-length NS5A JFH-1-His (genotype 2a) (natural protein)
# chain: SGSWLRDVWDWVCTILTDFKNWLTSKLFPKLPGLPFISCQKGYKGVWAGTGIMTTRCPCGANISGNVRLGSMRITGPKTCMNTWQGTFPINCYTEGQCAPKPPTNYKTAIWRVAASEYAEVTQHGSYSYVTGLTTDNLKIPCQLPSPEFFSWVDGVQIHRFAPTPKPFFRDEVSFCVGLNSYAVGSQLPCEPEPDADVLRSMLTDPPHITAETAARRLARGSPPSEASSSVSQLSAPSLRATCTTHSNTYDVDMVDANLLMEGGVAQTEPESRVPVLDFLEPMAEEESDLEPSIPSECMLPRSGFPRALPAWARPDYNPPLVESWRRPDYQPPTVAGCALPPPKKAPTPPPRRRRTVGLSESTISEALQQLAIKTFGQPPSSGDAGSSTGAGAAESGGPTSPGEPAPSETGSASSMPPLEGEPGDPDLESDQVELQPPPQGGGVAPGSGSGSWSTCSEEDDTTVCC
# B2: full-length NS5A Con1-His (genotype 1b) (natural protein)
# chain: SGSWLRDVWDWICTVLTDFKTWLQSKLLPRLPGVPFFSCQRGYKGVWRGDGIMQTTCPCGAQITGHVKNGSMRIVGPRTCSNTWHGTFPINAYTTGPCTPSPAPNYSRALWRVAAEEYVEVTRVGDFHYVTGMTTDNVKCPCQVPAPEFFTEVDGVRLHRYAPACKPLLREEVTFLVGLNQYLVGSQLPCEPEPDVAVLTSMLTDPSHITAETAKRRLARGSPPSLASSSASQLSAPSLKATCTTRHDSPDADLIEANLLWRQEMGGNITRVESENKVVILDSFEPLQAEEDEREVSVPAEILRRSRKFPRAMPIWARPDYNPPLLESWKDPDYVPPVVHGCPLPPAKAPPIPPPRRKRTVVLSESTVSSALAELATKTFGSSESSAVDSGTATASPDQPSDDGDAGSDVESYSSMPPLEGEPGDPDLSDGSWSTVSEEASEDVVCC
# B3: full-length NS5A H77-His (genotype 1a) (natural protein)
# chain: SGSWLRDIWDWICEVLSDFKTWLKAKLMPQLPGIPFVSCQRGYRGVWRGDGIMHTRCHCGAEITGHVKNGTMRIVGPRTCKNMWSGTFFINAYTTGPCTPLPAPNYKFALWRVSAEEYVEIRRVGDFHYVSGMTTDNLKCPCQIPSPEFFTELDGVRLHRFAPPCKPLLREEVSFRVGLHEYPVGSQLPCEPEPDVAVLTSMLTDPSHITAEAAGRRLARGSPPSMASSSASQLSAPSLKATCTANHDSPDAELIEANLLWRQEMGGNITRVESENKVVILDSFDPLVAEEDEREVSVPAEILRKSRRFAPALPVWARPDYNPLLVETWKKPDYEPPVVHGCPLPPPRSPPVPPPRKKRTVVLTESTLPTALAELATKSFGSSSTSGITGDNTTTSSEPAPSGCPPDSDVESYSSMPPLEGEPGDPDLSDGSWSTVSSGADTEDVVCC
# B4: domain 2 of JFH-1 NS5A (domain or fragment)
# chain: NTYDVDMVDANLLMEGGVAQTEPESRVPVLDFLEPMAEEESDLEPSIPSECMLPRSGFPRALPAWARPDYNPPLVESWRRPDYQPPTVAGCALP
# Molecular target: GST-CypA (cyclophilin A) (human, UniProt P62937 1-165)
# Test: radioligand binding
row,Binder,Kd
1,B1,108 µM
2,B2,126 µM
3,B3,131 µM
4,B4,69 µM
